Results published in patent US20220089647A1 (FUJIFILM, published 2022).
Starred links: 1 amine or outer side, 2 acyl side, 3 side chain; linkers in the order of their positions; H or OH if unused. Positions of bridges follow the written chain, without caps; N, C: chain ends. Non-standard residues stand in square brackets, D forms with d. Primed or numbered codes have the meaning given here. No end group written: not given here. Dab(acetyl)″ = 2-amino-4-(acetylamino)butanoic acid, acetyl CH3 carbon bonded to the S of Hcy (S-CH2-C(=O)-NH-), O=C(C[*:3])NCC[C@H](N[*:1])C(=O)[*:2]; Dab(acetyl) = 2-amino-4-acetylamino-butanoic acid residue (N-γ-acetyl-diaminobutyric acid), CC(=O)NCC[C@H](N[*:1])C(=O)[*:2]; COCH2 = acetyl group that carries the bridge; hCys = N[C@@H](CCS)C(=O)O; Dab = NCC[C@H](N)C(=O)O; Dap = NC[C@H](N)C(=O)O; βAla = NCCC(=O)O

target: T1, human integrin αvβ5 (human, UniProt P06756 31-992; P18084 24-719, limits assumed); assay: SPR, Biacore 3000, peptide immobilised; C = KD more than 100 nM and 200 nM or less
T1 construct: Heterodimer flowed as analyte at 30, 100, 300 and 1,000 nM in HEPES buffer with 5 mM MgCl2
T1 sequence (P06756 31-992 limits assumed, chain 1 of 2): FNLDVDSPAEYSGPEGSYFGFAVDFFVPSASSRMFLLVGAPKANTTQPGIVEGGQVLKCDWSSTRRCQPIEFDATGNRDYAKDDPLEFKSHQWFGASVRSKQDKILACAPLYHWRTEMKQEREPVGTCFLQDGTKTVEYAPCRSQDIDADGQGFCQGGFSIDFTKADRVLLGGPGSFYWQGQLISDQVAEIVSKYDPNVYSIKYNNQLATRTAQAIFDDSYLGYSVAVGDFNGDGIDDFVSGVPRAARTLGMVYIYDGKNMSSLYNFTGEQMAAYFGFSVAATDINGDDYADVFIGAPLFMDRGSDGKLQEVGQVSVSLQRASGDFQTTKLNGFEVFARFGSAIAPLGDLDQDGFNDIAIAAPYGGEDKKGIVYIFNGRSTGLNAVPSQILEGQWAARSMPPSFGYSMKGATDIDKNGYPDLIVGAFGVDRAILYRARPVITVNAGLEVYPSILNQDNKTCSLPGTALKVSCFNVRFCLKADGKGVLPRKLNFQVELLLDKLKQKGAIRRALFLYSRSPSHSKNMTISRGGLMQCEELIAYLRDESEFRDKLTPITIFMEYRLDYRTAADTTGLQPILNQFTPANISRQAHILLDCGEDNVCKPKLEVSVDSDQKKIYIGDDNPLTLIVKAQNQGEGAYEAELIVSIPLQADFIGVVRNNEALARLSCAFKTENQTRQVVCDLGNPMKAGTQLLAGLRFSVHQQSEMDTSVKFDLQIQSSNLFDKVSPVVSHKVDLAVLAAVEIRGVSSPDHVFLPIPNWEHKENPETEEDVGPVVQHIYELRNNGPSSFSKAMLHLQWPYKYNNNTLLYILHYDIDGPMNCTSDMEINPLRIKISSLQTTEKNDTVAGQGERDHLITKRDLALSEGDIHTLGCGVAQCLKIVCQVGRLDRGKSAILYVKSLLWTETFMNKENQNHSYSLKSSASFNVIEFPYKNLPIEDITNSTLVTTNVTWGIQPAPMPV
T1 sequence (P18084 24-719 limits assumed, chain 2 of 2): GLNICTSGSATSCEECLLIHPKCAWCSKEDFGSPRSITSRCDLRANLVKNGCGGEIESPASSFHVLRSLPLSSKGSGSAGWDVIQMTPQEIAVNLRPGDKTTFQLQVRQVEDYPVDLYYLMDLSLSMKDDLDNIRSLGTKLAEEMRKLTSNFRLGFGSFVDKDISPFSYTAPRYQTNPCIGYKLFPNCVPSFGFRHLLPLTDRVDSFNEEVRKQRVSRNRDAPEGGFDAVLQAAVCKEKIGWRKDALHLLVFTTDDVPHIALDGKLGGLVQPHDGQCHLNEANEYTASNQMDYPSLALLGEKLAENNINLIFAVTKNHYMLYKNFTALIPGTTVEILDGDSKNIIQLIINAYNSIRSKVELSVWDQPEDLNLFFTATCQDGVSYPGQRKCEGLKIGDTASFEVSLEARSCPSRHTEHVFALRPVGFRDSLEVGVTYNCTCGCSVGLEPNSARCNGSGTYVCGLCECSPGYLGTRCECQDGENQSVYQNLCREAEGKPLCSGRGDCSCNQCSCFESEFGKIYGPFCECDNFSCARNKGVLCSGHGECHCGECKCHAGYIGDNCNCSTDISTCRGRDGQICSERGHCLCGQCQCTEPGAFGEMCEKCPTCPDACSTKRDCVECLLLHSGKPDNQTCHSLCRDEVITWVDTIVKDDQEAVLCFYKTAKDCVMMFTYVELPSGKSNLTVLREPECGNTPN
Protocol: However, only for the cyclic peptides 125, 126, and 127, in which the number of lysine residues having an amino group as the immobilizing functional group was zero, the amount of the sample solution to be supplied to the sensor chip was set to 500 μL instead of 20 μL. Further, 70 μL of the mixed aqueous solution of 0.2 M EDC and 0.04 M NHS was added to another flow channel of the same sensor chip without immobilizing the sample, and then blocking treatment and washing treatment were carried out. Hereinafter, the obtained immobilization-treated sensor chip is referred to as an “immobilization-treated sensor chip A”.
After adding human integrin αvβ5 for 10 minutes at 25° C., which was diluted to 30 nM using a HEPES buffer solution to which magnesium chloride was added to 5 mM, in each flow channel of the immobilization-treated sensor chip A prepared in (1) above, the same HEPES buffer solution (containing 5 mM magnesium chloride) was allowed to flow as a running buffer for 30 minutes, and measurement was carried out with Biacore 3000. Then, a regeneration treatment of removing human integrin αvβ5 was carried out by allowing a 0.5 M EDTA aqueous solution to flow through each flow channel for 10 minutes. Further, the above-described measurement process consisting of adding integrin for 10 minutes, allowing a running buffer to flow for 30 minutes, carrying out measurement with Biacore 3000, and carrying out regeneration treatment with 0.5 M EDTA aqueous solution was carried out in the same manner for 100 nM human integrin αvβ5, 300 nM human integrin αvβ5, and 1,000 nM human integrin αvβ5. Dissociation constant between the cyclic peptide and human integrin αvβ5 was calculated from the difference between the value measured by Biacore 3000 in the flow channel immobilized with the cyclic peptide and the value measured by Biacore 3000 in the flow channel unimmobilized with the cyclic peptide, in a case where each concentration of human integrin αvβ5 was allowed to flow, and the integrin binding property was evaluated according to the following evaluation standards. It is preferable that the evaluation result satisfies the evaluation standard A, B, or C.

dissociation constant (KD) [nM]	Binder
100 to 200	KKK[βAla][hCys]EPRGDNYR[Dab(acetyl)″]-NH2 (thioether 5-14; N-terminus assumed; SMILES N=C(N)NCCC[C@@H]1NC(=O)[C@H](Cc2ccc(O)cc2)NC(=O)[C@H](CC(N)=O)NC(=O)[C@H](CC(=O)O)NC(=O)CNC(=O)[C@H](CCCNC(=N)N)NC(=O)[C@@H]2CCCN2C(=O)[C@H](CCC(=O)O)NC(=O)[C@@H](NC(=O)CCNC(=O)[C@H](CCCCN)NC(=O)[C@H](CCCCN)NC(=O)[C@@H](N)CCCCN)CCSCC(=O)NCC[C@@H](C(N)=O)NC1=O) [Cyclic peptide 51]
100 to 200	KKKA[hCys]EPRGDNYR[Dab(acetyl)″]-NH2 (thioether 5-14; N-terminus assumed; SMILES C[C@H](NC(=O)[C@H](CCCCN)NC(=O)[C@H](CCCCN)NC(=O)[C@@H](N)CCCCN)C(=O)N[C@H]1CCSCC(=O)NCC[C@@H](C(N)=O)NC(=O)[C@H](CCCNC(=N)N)NC(=O)[C@H](Cc2ccc(O)cc2)NC(=O)[C@H](CC(N)=O)NC(=O)[C@H](CC(=O)O)NC(=O)CNC(=O)[C@H](CCCNC(=N)N)NC(=O)[C@@H]2CCCN2C(=O)[C@H](CCC(=O)O)NC1=O) [Cyclic peptide 50]
100 to 200	KKK[hCys]PRGDNFR[Dab(acetyl)]A (thioether 4-12) [Cyclic peptide 9]
100 to 200	KKKA[hCys]EPRGDSYR[Dab](COCH2)D (thioether 5-14) [Cyclic peptide 33]
100 to 200	KKKA[hCys]EPRGDNYD[Dab](COCH2)D (thioether 5-14) [Cyclic peptide 35]

target: T1, human integrin αvβ5; assay: SPR, Biacore 3000, peptide immobilised; A = KD 50 nM or less

Binder	dissociation constant (KD) [nM]
KKKA[Dab(acetyl)]VPRGDTFACA (thioether 5-14) [Cyclic peptide 142]	≤ 50
KKK[Dab(acetyl)]VPRGDNFC (thioether 4-12) [Cyclic peptide 143]	≤ 50
KKKA[hCys]TPRGDTFA[Dab(acetyl)] (thioether 5-14) [Cyclic peptide 158]	≤ 50
KKK[hCys]TPRGDTFA[Dab](COCH2)A (thioether 4-13) [Cyclic peptide 159]	≤ 50
KKK[Dab(acetyl)]VPRGDTFAC (thioether 4-13) [Cyclic peptide 141]	≤ 50

Second part, the binder after the results:

dissociation constant (KD) [nM]	Binder
≤ 50	KKKA[Dap](COCH2)EPRGDNYRC (thioether 5-14) [Cyclic peptide 166]
≤ 50	KKKA[hCys]VPRGDTFA[Dab](COCH2) (thioether 5-14) [Cyclic peptide 164]
≤ 50	KKK[hCys]VPRGDTFA[Dab](COCH2)A (thioether 4-13) [Cyclic peptide 165]
≤ 50	KKK[hCys]TTRGDSFA[Dab(acetyl)] (thioether 4-13) [Cyclic peptide 157]
≤ 50	KKKA[hCys]IPRGDSFA[Dab](COCH2) (thioether 5-14) [Cyclic peptide 162]
≤ 50	KKK[hCys]IPRGDSFA[Dab](COCH2)A (thioether 4-13) [Cyclic peptide 163]

target: T1, human integrin αvβ5; assay: SPR, Biacore 3000, peptide immobilised; B = KD more than 50 nM and 100 nM or less

dissociation constant (KD) [nM]	Binder
50 to 100	KKKA[hCys]TTRGDSFA[Dab](COCH2)A (thioether 5-14) [Cyclic peptide 161]
50 to 100	KKK[hCys]VPRGDTFT[Dab(acetyl)] (thioether 4-13) [Cyclic peptide 154]
50 to 100	KKK[hCys]TPRGDSFA[Dab(acetyl)] (thioether 4-13) [Cyclic peptide 156]
50 to 100	KKK[Dap](COCH2)EPRGDNYRC (thioether 4-13) [Cyclic peptide 167]
